US20070100561

How the values were obtained:
[1] = biological target: enzymatically deglycosylated soluble extracellular domain of human DPP-IV (sDPP-IVdeglycos)
[2] = biological target: enzymatically deglycosylated soluble extracellular domain of human dipeptidyl peptidase IV (sDPP-IVdeglycos; residues 31-766)
Sequence of enzymatically deglycosylated soluble extracellular domain of human dipeptidyl peptidase IV (sDPP-IVdeglycos; residues 31-766) (chain, as listed by the source): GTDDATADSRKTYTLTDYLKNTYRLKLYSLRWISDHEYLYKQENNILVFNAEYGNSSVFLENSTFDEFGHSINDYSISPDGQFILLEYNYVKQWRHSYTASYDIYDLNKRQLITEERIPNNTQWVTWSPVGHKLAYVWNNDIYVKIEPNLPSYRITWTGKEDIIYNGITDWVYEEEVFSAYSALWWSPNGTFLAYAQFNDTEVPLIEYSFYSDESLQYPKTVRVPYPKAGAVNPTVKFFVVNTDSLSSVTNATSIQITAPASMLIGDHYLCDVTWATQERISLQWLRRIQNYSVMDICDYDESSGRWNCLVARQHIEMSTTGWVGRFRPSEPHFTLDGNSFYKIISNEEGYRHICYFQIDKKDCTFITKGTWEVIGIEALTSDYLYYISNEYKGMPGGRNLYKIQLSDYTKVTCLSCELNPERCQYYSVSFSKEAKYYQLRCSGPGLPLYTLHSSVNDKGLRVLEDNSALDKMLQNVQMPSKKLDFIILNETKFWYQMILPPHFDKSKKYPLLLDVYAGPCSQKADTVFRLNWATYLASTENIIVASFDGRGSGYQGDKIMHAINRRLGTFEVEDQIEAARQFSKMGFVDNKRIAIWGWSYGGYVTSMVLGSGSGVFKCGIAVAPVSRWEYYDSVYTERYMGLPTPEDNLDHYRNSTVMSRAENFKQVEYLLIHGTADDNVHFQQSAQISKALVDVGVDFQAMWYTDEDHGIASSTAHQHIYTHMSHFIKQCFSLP

Sequence of enzymatically deglycosylated soluble extracellular domain of human DPP-IV (sDPP-IVdeglycos) (chain, as listed by the source): as above

B1: adenosine deaminase (ADA; Sigma Type IV, from calf intestinal mucosa) (protein)
chain: AQTPAFNKPKVELHVHLDGAIKPETILYYGRKRGIALPADTPEELQNIIGMDKPLSLPEFLAKFDYYMPAIAGCREAVKRIAYEFVEMKAKDGVVYVEVRYSPHLLANSKVEPIPWNQAEGDLTPDEVVSLVNQGLQEGERDFGVKVRSILCCMRHQPSWSSEVVELCKKYREQTVVAIDLAGDETIEGSSLFPGHVKAYAEAVKSGVHRTVHAGEVGSANVVKEAVDTLKTERLGHGYHTLEDATLYNRLRQENMHFEVCPWSSYLTGAWKPDTEHPVVRFKNDQVNYSLNTDDPLIFKSTLDTDYQMTKNEMGFTEEEFKRLNINAAKSSFLPEDEKKELLDLLYKAYGMPSPA
- KM (enzyme activity of DPP-IV in the complex with ADA) [1]: 14.8 µM
- kcat (enzyme activity of DPP-IV in the complex with ADA) [1]: 39.6 s⁻¹
- kcat/KM (enzyme activity of DPP-IV in the complex with ADA) [1]: 2.68e+06 M⁻¹ s⁻¹
- DPP-IV activity [2]: confirming the independence of DPP-IV activity on ADA binding
